In IntAct's records for PubMed 31515488:

B1: Placental protein 13-like (Homo sapiens), Q8TCE9 (parent)
chain: MSSLPVPYTLPVSLPVGSCVIITGTPILTFVKDPQLEVNFYTGMDEDSDIAFQFRLHFGHPAIMNSCVFGIWRYEEKCYYLPFEDGKPFELCIYVRHKEYKVMVNGQRIYNFAHRFPPASVKMLQVFRDISLTRVLISD
partner: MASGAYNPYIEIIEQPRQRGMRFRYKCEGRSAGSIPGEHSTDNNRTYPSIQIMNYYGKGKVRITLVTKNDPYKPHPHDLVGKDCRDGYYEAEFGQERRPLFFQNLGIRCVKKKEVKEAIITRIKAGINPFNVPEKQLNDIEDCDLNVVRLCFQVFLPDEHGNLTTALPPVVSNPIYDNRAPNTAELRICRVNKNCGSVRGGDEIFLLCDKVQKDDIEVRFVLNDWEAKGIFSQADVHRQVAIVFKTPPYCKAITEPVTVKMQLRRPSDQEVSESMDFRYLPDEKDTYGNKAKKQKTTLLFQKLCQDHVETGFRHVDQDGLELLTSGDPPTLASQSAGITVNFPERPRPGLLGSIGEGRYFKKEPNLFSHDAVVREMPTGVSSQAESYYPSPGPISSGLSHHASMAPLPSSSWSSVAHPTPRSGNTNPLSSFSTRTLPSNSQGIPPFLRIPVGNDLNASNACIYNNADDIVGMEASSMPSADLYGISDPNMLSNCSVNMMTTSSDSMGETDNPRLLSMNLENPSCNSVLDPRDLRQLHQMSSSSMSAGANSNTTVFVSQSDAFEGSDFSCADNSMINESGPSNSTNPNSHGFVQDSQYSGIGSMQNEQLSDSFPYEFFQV
B2: Septin-12 (Homo sapiens), Q8IYM1 (parent)
chain: MDPLRRSPSPCLSSQPSSPSTPPCEMLGPVGIEAVLDQLKIKAMKMGFEFNIMVVGQSGLGKSTMVNTLFKSKVWKSNPPGLGVPTPQTLQLHSLTHVIEEKGVKLKLTVTDTPGFGDQINNDNCWDPILGYINEQYEQYLQEEILITRQRHIPDTRVHCCVYFVPPTGHCLRPLDIEFLQRLCRTVNVVPVIARADSLTMEEREAFRRRIQQNLRTHCIDVYPQMCFDEDINDKILNSKLRDRIPFAVVGADQEHLVNGRCVLGRKTKWGIIEVENMAHCEFPLLRDLLIRSHLQDLKDITHNIHYENYRVIRLNESHLLPRGPGWVNLAPASPGQLTTPRTFKVCRGAHDDSDDEF
partner: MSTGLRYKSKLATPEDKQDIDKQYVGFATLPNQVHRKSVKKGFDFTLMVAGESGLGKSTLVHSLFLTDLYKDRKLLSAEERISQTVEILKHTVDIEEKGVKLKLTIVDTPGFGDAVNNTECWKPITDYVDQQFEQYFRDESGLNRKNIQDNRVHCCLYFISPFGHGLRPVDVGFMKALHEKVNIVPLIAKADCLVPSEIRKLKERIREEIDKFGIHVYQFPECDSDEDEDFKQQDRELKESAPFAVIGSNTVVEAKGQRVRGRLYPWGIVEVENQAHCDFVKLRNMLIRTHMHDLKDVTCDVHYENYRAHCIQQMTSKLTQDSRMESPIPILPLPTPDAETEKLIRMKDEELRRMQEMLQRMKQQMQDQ
B3: Coiled-coil domain-containing protein 92 (Homo sapiens), Q53HC0 (parent)
chain: MTSPHFSSYDEGPLDVSMAATNLENQLHSAQKNLLFLQREHASTLKGLHSEIRRLQQHCTDLTYELTVKSSEQTGDGTSKSSELKKRCEELEAQLKVKENENAELLKELEQKNAMITVLENTIKEREKKYLEELKAKSHKLTLLSSELEQRASTIAYLTSQLHAAKKKLMSSSGTSDASPSGSPVLASYKPAPPKDKLPETPRRRMKKSLSAPLHPEFEEVYRFGAESRKLLLREPVDAMPDPTPFLLARESAEVHLIKERPLVIPPIASDRSGEQHSPAREKPHKAHVGVAHRIHHATPPQAQPEVKTLAVDQVNGGKVVRKHSGTDRTV
partner: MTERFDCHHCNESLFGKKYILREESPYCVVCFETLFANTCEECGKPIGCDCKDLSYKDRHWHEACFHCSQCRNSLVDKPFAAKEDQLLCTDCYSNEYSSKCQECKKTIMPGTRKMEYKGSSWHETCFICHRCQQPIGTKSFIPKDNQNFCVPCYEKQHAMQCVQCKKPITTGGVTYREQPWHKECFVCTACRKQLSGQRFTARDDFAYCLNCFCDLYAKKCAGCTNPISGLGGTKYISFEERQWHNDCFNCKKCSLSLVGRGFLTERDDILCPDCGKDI
B4: Dolichyl-diphosphooligosaccharide--protein glycosyltransferase subunit 1 (Homo sapiens), P04843 (parent)
chain: MEAPAAGLFLLLLLGTWAPAPGSASSEAPPLINEDVKRTVDLSSHLAKVTAEVVLAHLGGGSTSRATSFLLALEPELEARLAHLGVQVKGEDEEENNLEVRETKIKGKSGRFFTVKLPVALDPGAKISVIVETVYTHVLHPYPTQITQSEKQFVVFEGNHYFYSPYPTKTQTMRVKLASRNVESYTKLGNPTRSEDLLDYGPFRDVPAYSQDTFKVHYENNSPFLTITSMTRVIEVSHWGNIAVEENVDLKHTGAVLKGPFSRYDYQRQPDSGISSIRSFKTILPAAAQDVYYRDEIGNVSTSHLLILDDSVEMEIRPRFPLFGGWKTHYIVGYNLPSYEYLYNLGDQYALKMRFVDHVFDEQVIDSLTVKIILPEGAKNIEIDSPYEISRAPDELHYTYLDTFGRPVIVAYKKNLVEQHIQDIVVHYTFNKVLMLQEPLLVVAAFYILFFTVIIYVRLDFSITKDPAAEARMKVACITEQVLTLVNKRIGLYRHFDETVNRYKQSRDISTLNSGKKSLETEHKALTSEIALLQSRLKTEGSDLCDRVSEMQKLDAQVKELVLKSAVEAERLVAGKLKKDTYIENEKLISGKRQELVTKIDHILDAL

Variants of: B1
Details: with rel_human REL

| effect of a mutation on the interaction | Variant |
| --- | --- |
| with no effect | MSSLPVPYTLPVSLPVGSCVIITGTPILTFVKDPQLEVNFYTGMDEDSDIAFQFRLHFGHPAIMNSCVFGIWRYEEKCYYLPFEDGKPFELCIYVRHKEYKVMVNGQRIYNFAHRFPPASVKTLQVFRDISLTRVLISD [M123T] |

Variants of: B2
Details: with sept5_human SEPTIN5, Q99719

| effect of a mutation on the interaction | Variant |
| --- | --- |
| disrupting interaction strength | MDPLRRSPSPCLSSQPSSPSTPPCEMLGPVGIEAVLDQLKIKAMKMGFEFNIMVVGQSGLGKSTMVNTLFKSKVWKSNPPGLGVPTPQTLQLHSLTHVIEEKGVKLKLTVTDTPGFGDQINNDNCWDPILGYINEQYEQYLQEEILITRQRHIPDTRVHCCVYFVPPTEHCLRPLDIEFLQRLCRTVNVVPVIARADSLTMEEREAFRRRIQQNLRTHCIDVYPQMCFDEDINDKILNSKLRDRIPFAVVGADQEHLVNGRCVLGRKTKWGIIEVENMAHCEFPLLRDLLIRSHLQDLKDITHNIHYENYRVIRLNESHLLPRGPGWVNLAPASPGQLTTPRTFKVCRGAHDDSDDEF [G169E] |
| disrupting interaction strength | MDPLRRSPSPCLSSQPSSPSTPPCEMLGPVGIEAVLDQLKIKAMKMGFEFNIMVVGQSGLGKSTMVNTLFKSKVWKSNPPGLGVPTPQTLQLHSLTHVIEEKGVKLKLTVTDTPGFGDQINNDNCWDPILGYINEQYEQYLQEEILITRQRHIPDTRVHCCVYFVPPTGHCLRPLDIEFLQRLCRTVNVVPVIARANSLTMEEREAFRRRIQQNLRTHCIDVYPQMCFDEDINDKILNSKLRDRIPFAVVGADQEHLVNGRCVLGRKTKWGIIEVENMAHCEFPLLRDLLIRSHLQDLKDITHNIHYENYRVIRLNESHLLPRGPGWVNLAPASPGQLTTPRTFKVCRGAHDDSDDEF [D197N] |
| disrupting interaction strength | MDPLRRSPSPCLSSQPSSPSTPPCEMLGPVGIEAVLDQLKIKAMKMGFEFNIMVVGQSGLGKSTMVNTLFKSKVWKSNPPGLGVPTPQTLQLHSLTHVIEEKGVKLKLTVTDTPGFGDQINNDNCWDPILGYINEQYEQYLQEEILITRQRHIPDTRVHCCVYFVPPTGHCLRPLDIEFLQRLCRTVNVVPVIARADSLTMEEREAFRRRIQQNLRTHCIDVYPQMCFDEDINDKILNSKLRDRIPFAVVGADQEHLVNGRCDLGRKTKWGIIEVENMAHCEFPLLRDLLIRSHLQDLKDITHNIHYENYRVIRLNESHLLPRGPGWVNLAPASPGQLTTPRTFKVCRGAHDDSDDEF [V263D] |
| disrupting interaction strength | MDPLRRSPSPCLSSQPSSPSTPPCEMLGPVGIEAVLDQLKIKAMKMGFEFNIMVVGQSGLGKSTMVNTLFKSKVWKSNPPGLGVPTPQTLQLHSLTHVIEEKGVKLKLTVTDTPGFGDQINNDNCWDPILGYINEQYEQYLQEEILITRQRHIPDTRVHCCVYFVPPTGHCLRPLDIEFLQRLCRTVNVVPVIARADSLTMEEQEAFRRRIQQNLRTHCIDVYPQMCFDEDINDKILNSKLRDRIPFAVVGADQEHLVNGRCVLGRKTKWGIIEVENMAHCEFPLLRDLLIRSHLQDLKDITHNIHYENYRVIRLNESHLLPRGPGWVNLAPASPGQLTTPRTFKVCRGAHDDSDDEF [R204Q] |
| disrupting interaction strength | MDPLRRSPSPCLSSQPSSPSTPPCEMLGPVGIEAVLDQLKIKAMKMGFEFNIMVVGQSGLGKSTMVNTLFKSKVWKSNPPGLGVPTPQTLQLHSLTHVIEEKGVKLKLTVTDTPGFGDQINNDNCWDPILGYINEQYEQYLQEEILITRQRHIPDTRVHCCVYFVPPTGHCLRPLDIEFLQRLCRTVNVVPVIARADSLTMEEREAFRRRIQRNLRTHCIDVYPQMCFDEDINDKILNSKLRDRIPFAVVGADQEHLVNGRCVLGRKTKWGIIEVENMAHCEFPLLRDLLIRSHLQDLKDITHNIHYENYRVIRLNESHLLPRGPGWVNLAPASPGQLTTPRTFKVCRGAHDDSDDEF [Q213R] |
| with no effect | MDPLRRSPSPCLSSQPSSPSTPPCEMLGPVGIEAVLDQLKIKAMKMGFEFNIMVVGQSGLGKSTMVNTLFKSKVWKSNPPGLGVPTPQTLQLHSLTHVIEEKGVKLKLTVTDTPGFGDQINNDNCWDPILGYINEQYEQYLQEEILITRQRHIPDTRVHCCVYFVPPTGHCLRPLDIEFLQRLCRTVNVVPVIARADSLTMEEREAFRRRIQQNLRTHCIDVYPQMCFDEDINDKILNSKLRDRIPFAVVGADQEHLVNGRCVLGRKTKWGIIEVENMAHCEFPLLRDLLIRSHLQDLKDITHNIHYENYCVIRLNESHLLPRGPGWVNLAPASPGQLTTPRTFKVCRGAHDDSDDEF [R311C] |
| with no effect | MDPLRRSPSPCLSSQPSSPSTPPCEMLGPVGIEAVLDQLKIKAMKMGFEFNIMVVGQSGLGKSTMVNTLFKSKVWKSNPPGLGVPTPQTLQLHSLTHVIEEKGVKLKLTVTDTPGFGDQINNDNCWDPILGYINEQYEQYLQEEILITRQRHIPDTRVHCCVYFVPPTGHCLRPLDIEFLQRLSRTVNVVPVIARADSLTMEEREAFRRRIQQNLRTHCIDVYPQMCFDEDINDKILNSKLRDRIPFAVVGADQEHLVNGRCVLGRKTKWGIIEVENMAHCEFPLLRDLLIRSHLQDLKDITHNIHYENYRVIRLNESHLLPRGPGWVNLAPASPGQLTTPRTFKVCRGAHDDSDDEF [C184S] |

Variants of: B3
Details: with fhl2_human FHL2, Q14192

| effect of a mutation on the interaction | Variant |
| --- | --- |
| with no effect | MTSPHFSSYDEGPLDVSMAATNLENQLHSAQKNLLFLQREHASTLKGLHSEIRRLQQHCTDLTYELTVKCSEQTGDGTSKSSELKKRCEELEAQLKVKENENAELLKELEQKNAMITVLENTIKEREKKYLEELKAKSHKLTLLSSELEQRASTIAYLTSQLHAAKKKLMSSSGTSDASPSGSPVLASYKPAPPKDKLPETPRRRMKKSLSAPLHPEFEEVYRFGAESRKLLLREPVDAMPDPTPFLLARESAEVHLIKERPLVIPPIASDRSGEQHSPAREKPHKAHVGVAHRIHHATPPQAQPEVKTLAVDQVNGGKVVRKHSGTDRTV [S70C] |

Variants of: B4
Details: with ubql1_human UBQLN1, Q9UMX0
ubql1_human UBQLN1, Q9UMX0, sequence (Q9UMX0 whole entry): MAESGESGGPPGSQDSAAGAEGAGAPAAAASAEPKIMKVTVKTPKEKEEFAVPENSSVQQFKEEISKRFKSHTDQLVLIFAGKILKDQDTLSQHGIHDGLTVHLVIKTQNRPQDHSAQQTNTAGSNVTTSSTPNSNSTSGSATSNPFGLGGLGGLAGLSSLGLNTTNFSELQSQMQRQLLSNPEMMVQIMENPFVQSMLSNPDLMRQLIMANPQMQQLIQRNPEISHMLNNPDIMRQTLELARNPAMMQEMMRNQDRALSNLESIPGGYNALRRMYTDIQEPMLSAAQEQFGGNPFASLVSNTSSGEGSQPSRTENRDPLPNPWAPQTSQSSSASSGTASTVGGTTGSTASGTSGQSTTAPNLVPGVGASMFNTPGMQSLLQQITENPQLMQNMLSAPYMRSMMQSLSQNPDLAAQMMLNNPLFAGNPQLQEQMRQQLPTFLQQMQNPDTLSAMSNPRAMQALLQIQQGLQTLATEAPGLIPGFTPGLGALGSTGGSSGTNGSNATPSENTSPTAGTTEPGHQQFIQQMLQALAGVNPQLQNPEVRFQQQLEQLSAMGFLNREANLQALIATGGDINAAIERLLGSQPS

| effect of a mutation on the interaction | Variant |
| --- | --- |
| disrupting interaction strength | F203L |

Variants of: B4
Details: with sgta_human SGTA

| effect of a mutation on the interaction | Variant |
| --- | --- |
| with no effect | F203L |
